Patent publication US20180155451A1 (published 2018)

Target: T1, FcγRIIIa extracellular domain with C-terminal His tag (human, UniProt P08637 17-208)
T1 construct: extracellular domain; also called FcgRIIIa; 3a
Test: SPR, relative to GpH7-B3/GpL16-k0

T1 sequence (P08637 17-208): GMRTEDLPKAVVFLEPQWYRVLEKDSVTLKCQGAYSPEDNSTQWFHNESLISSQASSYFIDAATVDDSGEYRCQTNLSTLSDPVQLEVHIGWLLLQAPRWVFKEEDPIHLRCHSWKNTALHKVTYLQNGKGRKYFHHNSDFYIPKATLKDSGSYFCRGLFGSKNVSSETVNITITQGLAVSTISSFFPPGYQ

| Binder | Ho/Con_3a |
| --- | --- |
| GpH7-B3 variant K334_15Y/GpL16-k0 (antibody, human IgG1, kappa, homodimerized IgG1, mutation in both H chains; also called Ho Ab) heavy: not shown light: DIVMTQSPLSLPVTPGEPASISCQASESLVHSNRNTYLHWYLQKPGQSPQLLIYKVSNRFSGVPDRFSGSGSGTDFTLKISRVEAEDVGVYYCSQNTHVPPTFGQGTKVEIERTVAAPSVFIFPPSDEQLKSGTASVVCLLNNFYPREAKVQWKVDNALQSGNSQESVTEQDSKDSTYSLSSTLTLSKADYEKHKVYACEVTHQGLSSPVTKSFNRGEC | 181 % of control (=100) |
| GpH7-B3 variant Q295_02A/GpL16-k0 (antibody, human IgG1, kappa, homodimerized IgG1, mutation in both H chains; also called Ho Ab) heavy: not shown light: DIVMTQSPLSLPVTPGEPASISCQASESLVHSNRNTYLHWYLQKPGQSPQLLIYKVSNRFSGVPDRFSGSGSGTDFTLKISRVEAEDVGVYYCSQNTHVPPTFGQGTKVEIERTVAAPSVFIFPPSDEQLKSGTASVVCLLNNFYPREAKVQWKVDNALQSGNSQESVTEQDSKDSTYSLSSTLTLSKADYEKHKVYACEVTHQGLSSPVTKSFNRGEC | 108 % of control (=100) |
| GpH7-B3 variant K334_19Q/GpL16-k0 (antibody, human IgG1, kappa, homodimerized IgG1, mutation in both H chains; also called Ho Ab) heavy: not shown light: DIVMTQSPLSLPVTPGEPASISCQASESLVHSNRNTYLHWYLQKPGQSPQLLIYKVSNRFSGVPDRFSGSGSGTDFTLKISRVEAEDVGVYYCSQNTHVPPTFGQGTKVEIERTVAAPSVFIFPPSDEQLKSGTASVVCLLNNFYPREAKVQWKVDNALQSGNSQESVTEQDSKDSTYSLSSTLTLSKADYEKHKVYACEVTHQGLSSPVTKSFNRGEC | 150 % of control (=100) |
| GpH7-B3 variant K334_18N/GpL16-k0 (antibody, human IgG1, kappa, homodimerized IgG1, mutation in both H chains; also called Ho Ab) heavy: not shown light: DIVMTQSPLSLPVTPGEPASISCQASESLVHSNRNTYLHWYLQKPGQSPQLLIYKVSNRFSGVPDRFSGSGSGTDFTLKISRVEAEDVGVYYCSQNTHVPPTFGQGTKVEIERTVAAPSVFIFPPSDEQLKSGTASVVCLLNNFYPREAKVQWKVDNALQSGNSQESVTEQDSKDSTYSLSSTLTLSKADYEKHKVYACEVTHQGLSSPVTKSFNRGEC | 156 % of control (=100) |
| GpH7-B3 variant K334_16H/GpL16-k0 (antibody, human IgG1, kappa, homodimerized IgG1, mutation in both H chains; also called Ho Ab) heavy: not shown light: DIVMTQSPLSLPVTPGEPASISCQASESLVHSNRNTYLHWYLQKPGQSPQLLIYKVSNRFSGVPDRFSGSGSGTDFTLKISRVEAEDVGVYYCSQNTHVPPTFGQGTKVEIERTVAAPSVFIFPPSDEQLKSGTASVVCLLNNFYPREAKVQWKVDNALQSGNSQESVTEQDSKDSTYSLSSTLTLSKADYEKHKVYACEVTHQGLSSPVTKSFNRGEC | 153 % of control (=100) |
| GpH7-B3 variant Q295_10E/GpL16-k0 (antibody, human IgG1, kappa, homodimerized IgG1, mutation in both H chains; also called Ho Ab) heavy: not shown light: DIVMTQSPLSLPVTPGEPASISCQASESLVHSNRNTYLHWYLQKPGQSPQLLIYKVSNRFSGVPDRFSGSGSGTDFTLKISRVEAEDVGVYYCSQNTHVPPTFGQGTKVEIERTVAAPSVFIFPPSDEQLKSGTASVVCLLNNFYPREAKVQWKVDNALQSGNSQESVTEQDSKDSTYSLSSTLTLSKADYEKHKVYACEVTHQGLSSPVTKSFNRGEC | 111 % of control (=100) |
| GpH7-B3 variant S267_02A/GpL16-k0 (antibody, human IgG1, kappa, homodimerized IgG1, mutation in both H chains; also called Ho Ab) heavy: not shown light: DIVMTQSPLSLPVTPGEPASISCQASESLVHSNRNTYLHWYLQKPGQSPQLLIYKVSNRFSGVPDRFSGSGSGTDFTLKISRVEAEDVGVYYCSQNTHVPPTFGQGTKVEIERTVAAPSVFIFPPSDEQLKSGTASVVCLLNNFYPREAKVQWKVDNALQSGNSQESVTEQDSKDSTYSLSSTLTLSKADYEKHKVYACEVTHQGLSSPVTKSFNRGEC | 145 % of control (=100) |
| GpH7-B3 variant Q295_14T/GpL16-k0 (antibody, human IgG1, kappa, homodimerized IgG1, mutation in both H chains; also called Ho Ab) heavy: not shown light: DIVMTQSPLSLPVTPGEPASISCQASESLVHSNRNTYLHWYLQKPGQSPQLLIYKVSNRFSGVPDRFSGSGSGTDFTLKISRVEAEDVGVYYCSQNTHVPPTFGQGTKVEIERTVAAPSVFIFPPSDEQLKSGTASVVCLLNNFYPREAKVQWKVDNALQSGNSQESVTEQDSKDSTYSLSSTLTLSKADYEKHKVYACEVTHQGLSSPVTKSFNRGEC | 108 % of control (=100) |
| GpH7-B3 variant S239_09D/GpL16-k0 (antibody, human IgG1, kappa, homodimerized IgG1, mutation in both H chains; also called Ho Ab) heavy: not shown light: DIVMTQSPLSLPVTPGEPASISCQASESLVHSNRNTYLHWYLQKPGQSPQLLIYKVSNRFSGVPDRFSGSGSGTDFTLKISRVEAEDVGVYYCSQNTHVPPTFGQGTKVEIERTVAAPSVFIFPPSDEQLKSGTASVVCLLNNFYPREAKVQWKVDNALQSGNSQESVTEQDSKDSTYSLSSTLTLSKADYEKHKVYACEVTHQGLSSPVTKSFNRGEC | 192 % of control (=100) |

The next lines start with the values.

| Ho/Con_3a | Binder |
| --- | --- |
| 107 % of control (=100) | GpH7-B3 variant S298_14T/GpL16-k0 (antibody, human IgG1, kappa, homodimerized IgG1, mutation in both H chains; also called Ho Ab) heavy: not shown light: DIVMTQSPLSLPVTPGEPASISCQASESLVHSNRNTYLHWYLQKPGQSPQLLIYKVSNRFSGVPDRFSGSGSGTDFTLKISRVEAEDVGVYYCSQNTHVPPTFGQGTKVEIERTVAAPSVFIFPPSDEQLKSGTASVVCLLNNFYPREAKVQWKVDNALQSGNSQESVTEQDSKDSTYSLSSTLTLSKADYEKHKVYACEVTHQGLSSPVTKSFNRGEC |
| 102 % of control (=100) | GpH7-B3 variant T335_10E/GpL16-k0 (antibody, human IgG1, kappa, homodimerized IgG1, mutation in both H chains; also called Ho Ab) heavy: not shown light: DIVMTQSPLSLPVTPGEPASISCQASESLVHSNRNTYLHWYLQKPGQSPQLLIYKVSNRFSGVPDRFSGSGSGTDFTLKISRVEAEDVGVYYCSQNTHVPPTFGQGTKVEIERTVAAPSVFIFPPSDEQLKSGTASVVCLLNNFYPREAKVQWKVDNALQSGNSQESVTEQDSKDSTYSLSSTLTLSKADYEKHKVYACEVTHQGLSSPVTKSFNRGEC |
| 102 % of control (=100) | GpH7-B3 variant S337_18N/GpL16-k0 (antibody, human IgG1, kappa, homodimerized IgG1, mutation in both H chains; also called Ho Ab) heavy: not shown light: DIVMTQSPLSLPVTPGEPASISCQASESLVHSNRNTYLHWYLQKPGQSPQLLIYKVSNRFSGVPDRFSGSGSGTDFTLKISRVEAEDVGVYYCSQNTHVPPTFGQGTKVEIERTVAAPSVFIFPPSDEQLKSGTASVVCLLNNFYPREAKVQWKVDNALQSGNSQESVTEQDSKDSTYSLSSTLTLSKADYEKHKVYACEVTHQGLSSPVTKSFNRGEC |
| 160 % of control (=100) | GpH7-B3 variant S267_09D/GpL16-k0 (antibody, human IgG1, kappa, homodimerized IgG1, mutation in both H chains; also called Ho Ab) heavy: not shown light: DIVMTQSPLSLPVTPGEPASISCQASESLVHSNRNTYLHWYLQKPGQSPQLLIYKVSNRFSGVPDRFSGSGSGTDFTLKISRVEAEDVGVYYCSQNTHVPPTFGQGTKVEIERTVAAPSVFIFPPSDEQLKSGTASVVCLLNNFYPREAKVQWKVDNALQSGNSQESVTEQDSKDSTYSLSSTLTLSKADYEKHKVYACEVTHQGLSSPVTKSFNRGEC |
| 106 % of control (=100) | GpH7-B3 variant S337_09D/GpL16-k0 (antibody, human IgG1, kappa, homodimerized IgG1, mutation in both H chains; also called Ho Ab) heavy: not shown light: DIVMTQSPLSLPVTPGEPASISCQASESLVHSNRNTYLHWYLQKPGQSPQLLIYKVSNRFSGVPDRFSGSGSGTDFTLKISRVEAEDVGVYYCSQNTHVPPTFGQGTKVEIERTVAAPSVFIFPPSDEQLKSGTASVVCLLNNFYPREAKVQWKVDNALQSGNSQESVTEQDSKDSTYSLSSTLTLSKADYEKHKVYACEVTHQGLSSPVTKSFNRGEC |
| 100 % of control (=100) | GpH7-B3 variant S337_10E/GpL16-k0 (antibody, human IgG1, kappa, homodimerized IgG1, mutation in both H chains; also called Ho Ab) heavy: not shown light: DIVMTQSPLSLPVTPGEPASISCQASESLVHSNRNTYLHWYLQKPGQSPQLLIYKVSNRFSGVPDRFSGSGSGTDFTLKISRVEAEDVGVYYCSQNTHVPPTFGQGTKVEIERTVAAPSVFIFPPSDEQLKSGTASVVCLLNNFYPREAKVQWKVDNALQSGNSQESVTEQDSKDSTYSLSSTLTLSKADYEKHKVYACEVTHQGLSSPVTKSFNRGEC |
| 107 % of control (=100) | GpH7-B3 variant T335_07I/GpL16-k0 (antibody, human IgG1, kappa, homodimerized IgG1, mutation in both H chains; also called Ho Ab) heavy: not shown light: DIVMTQSPLSLPVTPGEPASISCQASESLVHSNRNTYLHWYLQKPGQSPQLLIYKVSNRFSGVPDRFSGSGSGTDFTLKISRVEAEDVGVYYCSQNTHVPPTFGQGTKVEIERTVAAPSVFIFPPSDEQLKSGTASVVCLLNNFYPREAKVQWKVDNALQSGNSQESVTEQDSKDSTYSLSSTLTLSKADYEKHKVYACEVTHQGLSSPVTKSFNRGEC |

Target: T1, FcγRIIIa extracellular domain with …
Test: SPR, relative to GpH7-A5/GpH7-B3/GpL16-k0

| He/Con_3a | Binder |
| --- | --- |
| 121 % of control (=100) | GpH7-A5/GpH7-B3 variant K334_01G/GpL16-k0 (antibody, human IgG1, kappa, heterodimerized IgG1, mutation in one H chain only; also called He Ab) heavy 1: not shown heavy 2: not shown light: DIVMTQSPLSLPVTPGEPASISCQASESLVHSNRNTYLHWYLQKPGQSPQLLIYKVSNRFSGVPDRFSGSGSGTDFTLKISRVEAEDVGVYYCSQNTHVPPTFGQGTKVEIERTVAAPSVFIFPPSDEQLKSGTASVVCLLNNFYPREAKVQWKVDNALQSGNSQESVTEQDSKDSTYSLSSTLTLSKADYEKHKVYACEVTHQGLSSPVTKSFNRGEC |
| 147 % of control (=100) | GpH7-A5/GpH7-B3 variant A330_04F/GpL16-k0 (antibody, human IgG1, kappa, heterodimerized IgG1, mutation in one H chain only; also called He Ab) heavy 1: not shown heavy 2: not shown light: DIVMTQSPLSLPVTPGEPASISCQASESLVHSNRNTYLHWYLQKPGQSPQLLIYKVSNRFSGVPDRFSGSGSGTDFTLKISRVEAEDVGVYYCSQNTHVPPTFGQGTKVEIERTVAAPSVFIFPPSDEQLKSGTASVVCLLNNFYPREAKVQWKVDNALQSGNSQESVTEQDSKDSTYSLSSTLTLSKADYEKHKVYACEVTHQGLSSPVTKSFNRGEC |
| 103 % of control (=100) | GpH7-A5/GpH7-B3 variant E333_16H/GpL16-k0 (antibody, human IgG1, kappa, heterodimerized IgG1, mutation in one H chain only; also called He Ab) heavy 1: not shown heavy 2: not shown light: DIVMTQSPLSLPVTPGEPASISCQASESLVHSNRNTYLHWYLQKPGQSPQLLIYKVSNRFSGVPDRFSGSGSGTDFTLKISRVEAEDVGVYYCSQNTHVPPTFGQGTKVEIERTVAAPSVFIFPPSDEQLKSGTASVVCLLNNFYPREAKVQWKVDNALQSGNSQESVTEQDSKDSTYSLSSTLTLSKADYEKHKVYACEVTHQGLSSPVTKSFNRGEC |
| 124 % of control (=100) | GpH7-A5/GpH7-B3 variant A330_08L/GpL16-k0 (antibody, human IgG1, kappa, heterodimerized IgG1, mutation in one H chain only; also called He Ab) heavy 1: not shown heavy 2: not shown light: DIVMTQSPLSLPVTPGEPASISCQASESLVHSNRNTYLHWYLQKPGQSPQLLIYKVSNRFSGVPDRFSGSGSGTDFTLKISRVEAEDVGVYYCSQNTHVPPTFGQGTKVEIERTVAAPSVFIFPPSDEQLKSGTASVVCLLNNFYPREAKVQWKVDNALQSGNSQESVTEQDSKDSTYSLSSTLTLSKADYEKHKVYACEVTHQGLSSPVTKSFNRGEC |
| 104 % of control (=100) | GpH7-A5/GpH7-B3 variant A330_20W/GpL16-k0 (antibody, human IgG1, kappa, heterodimerized IgG1, mutation in one H chain only; also called He Ab) heavy 1: not shown heavy 2: not shown light: DIVMTQSPLSLPVTPGEPASISCQASESLVHSNRNTYLHWYLQKPGQSPQLLIYKVSNRFSGVPDRFSGSGSGTDFTLKISRVEAEDVGVYYCSQNTHVPPTFGQGTKVEIERTVAAPSVFIFPPSDEQLKSGTASVVCLLNNFYPREAKVQWKVDNALQSGNSQESVTEQDSKDSTYSLSSTLTLSKADYEKHKVYACEVTHQGLSSPVTKSFNRGEC |
| 197 % of control (=100) | GpH7-A5/GpH7-B3 variant H268_09D/GpL16-k0 (antibody, human IgG1, kappa, heterodimerized IgG1, mutation in one H chain only; also called He Ab) heavy 1: not shown heavy 2: not shown light: DIVMTQSPLSLPVTPGEPASISCQASESLVHSNRNTYLHWYLQKPGQSPQLLIYKVSNRFSGVPDRFSGSGSGTDFTLKISRVEAEDVGVYYCSQNTHVPPTFGQGTKVEIERTVAAPSVFIFPPSDEQLKSGTASVVCLLNNFYPREAKVQWKVDNALQSGNSQESVTEQDSKDSTYSLSSTLTLSKADYEKHKVYACEVTHQGLSSPVTKSFNRGEC |
